This experiment concerns the target T1, human TNFR2 (human, UniProt P20333 23-461).
T1 construct: expressed on the surface of CHO cells; also called HuTNFR2; TNFRSF1B
T1 sequence: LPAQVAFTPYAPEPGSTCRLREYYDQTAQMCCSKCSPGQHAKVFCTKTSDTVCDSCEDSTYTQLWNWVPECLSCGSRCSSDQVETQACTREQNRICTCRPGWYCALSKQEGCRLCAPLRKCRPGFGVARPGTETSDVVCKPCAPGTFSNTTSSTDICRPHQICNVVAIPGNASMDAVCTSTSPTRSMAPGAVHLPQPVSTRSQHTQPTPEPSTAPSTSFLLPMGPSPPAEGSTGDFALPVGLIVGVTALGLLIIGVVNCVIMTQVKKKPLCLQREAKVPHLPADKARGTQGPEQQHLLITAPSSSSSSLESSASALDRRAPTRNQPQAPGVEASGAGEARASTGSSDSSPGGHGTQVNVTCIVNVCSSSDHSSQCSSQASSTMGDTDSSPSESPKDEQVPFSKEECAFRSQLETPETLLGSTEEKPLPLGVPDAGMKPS
Description: binding to human TNFR2 CHO cells.

The record followed here is patent publication US20230406951A1 (Pfizer, published 2023).

B1: TetraFab 2055 (antibody)
heavy: QVQLVQSGAEVKKPGASVKVSCKVSGFSFPSSGVDWVRQAPGQGLEWLGVTRGEGSTHYNQKFQGRVTITKDTSKSTVYMELSSLRSEDTAVYYCASGEWDEGFVYWGQGTLVTVSSASTKGPSVFPLAPSSKSTSGGTAALGCLVKDYFPEPVTVSWNSGALTSGVHTFPAVLQSSGLYSLSSVVTVPSSSLGTQTYICNVNHKPSNTKVDKKVEPKSCGGGGSQVQLVQSGAEVKKPGASVKVSCKVSGFSFPSSGVDWVRQAPGQGLEWLGVTRGEGSTHYNQKFQGRVTITKDTSKSTVYMELSSLRSEDTAVYYCASGEWDEGFVYWGQGTLVTVSSASTKGPSVFPLAPSSKSTSGGTAALGCLVKDYFPEPVTVSWNSGALTSGVHTFPAVLQSSGLYSLSSVVTVPSSSLGTQTYICNVNHKPSNTKVDKKVEPKSCDKTHTCPPCPAPEAAGAPSVFLFPPKPKDTLMISRTPEVTCVVVDVSHEDPEVKFNWYVDGVEVHNAKTKPREEQYNSTYRVVSVLTVLHQDWLNGKEYKCKVSNKALPAPIEKTISKAKGQPREPQVYTLPPSREEMTKNQVSLTCLVKGFYPSDIAVEWESNGQPENNYKTTPPVLDSDGSFFLYSKLTVDKSRWQQGNVFSCSVMHEALHNHYTQKSLSLSPGK
light: DIQLTQSPSFLSASVGDRVTITCKASQNVGTAVAWYQQKPGKAPKLLIYAASTLQSGVPSRFSGSGSGTEFTLTISSLQPEDFATYYCQQYSSYPLTFGGGTKVEIKRTVAAPSVFIFPPSDEQLKSGTASVVCLLNNFYPREAKVQWKVDNALQSGNSQESVTEQDSKDSTYSLSSTLTLSKADYEKHKVYACEVTHQGLSSPVTKSFNRGEC
notes: TetraFab
On to B1, for which the binding result is reported as “no binding”.

B2: TetraFab 2056 (antibody)
heavy: QVQLVQSGAEVKKPGASVKVSCKVSGFSFPSSGVDWVRQAPGQGLEWLGVTFQEGSTHYNQKFQGRVTITKDTSKSTVYMELSSLRSEDTAVYYCASGEWDEGFVYWGQGTLVTVSSASTKGPSVFPLAPSSKSTSGGTAALGCLVKDYFPEPVTVSWNSGALTSGVHTFPAVLQSSGLYSLSSVVTVPSSSLGTQTYICNVNHKPSNTKVDKKVEPKSCGGGGSQVQLVQSGAEVKKPGASVKVSCKVSGFSFPSSGVDWVRQAPGQGLEWLGVTFQEGSTHYNQKFQGRVTITKDTSKSTVYMELSSLRSEDTAVYYCASGEWDEGFVYWGQGTLVTVSSASTKGPSVFPLAPSSKSTSGGTAALGCLVKDYFPEPVTVSWNSGALTSGVHTFPAVLQSSGLYSLSSVVTVPSSSLGTQTYICNVNHKPSNTKVDKKVEPKSCDKTHTCPPCPAPEAAGAPSVFLFPPKPKDTLMISRTPEVTCVVVDVSHEDPEVKFNWYVDGVEVHNAKTKPREEQYNSTYRVVSVLTVLHQDWLNGKEYKCKVSNKALPAPIEKTISKAKGQPREPQVYTLPPSREEMTKNQVSLTCLVKGFYPSDIAVEWESNGQPENNYKTTPPVLDSDGSFFLYSKLTVDKSRWQQGNVFSCSVMHEALHNHYTQKSLSLSPGK
light: DIQLTQSPSFLSASVGDRVTITCKASQNVGTAVAWYQQKPGKAPKLLIYAASTLQSGVPSRFSGSGSGTEFTLTISSLQPEDFATYYCQQYSSYPLTFGGGTKVEIKRTVAAPSVFIFPPSDEQLKSGTASVVCLLNNFYPREAKVQWKVDNALQSGNSQESVTEQDSKDSTYSLSSTLTLSKADYEKHKVYACEVTHQGLSSPVTKSFNRGEC
notes: TetraFab
Take B2: the binding result is reported as “no binding”.

B3: TetraFab 2059 (antibody)
heavy: QVQLVQSGAEVKKPGASVKVSCKVSGFSFPSSGVDWVRQAPGQGLEWLGVTWGVGSTHYNQKFQGRVTITKDTSKSTVYMELSSLRSEDTAVYYCASGESTEGFVYWGQGTLVTVSSASTKGPSVFPLAPSSKSTSGGTAALGCLVKDYFPEPVTVSWNSGALTSGVHTFPAVLQSSGLYSLSSVVTVPSSSLGTQTYICNVNHKPSNTKVDKKVEPKSCGGGGSQVQLVQSGAEVKKPGASVKVSCKVSGFSFPSSGVDWVRQAPGQGLEWLGVTWGVGSTHYNQKFQGRVTITKDTSKSTVYMELSSLRSEDTAVYYCASGESTEGFVYWGQGTLVTVSSASTKGPSVFPLAPSSKSTSGGTAALGCLVKDYFPEPVTVSWNSGALTSGVHTFPAVLQSSGLYSLSSVVTVPSSSLGTQTYICNVNHKPSNTKVDKKVEPKSCDKTHTCPPCPAPEAAGAPSVFLFPPKPKDTLMISRTPEVTCVVVDVSHEDPEVKFNWYVDGVEVHNAKTKPREEQYNSTYRVVSVLTVLHQDWLNGKEYKCKVSNKALPAPIEKTISKAKGQPREPQVYTLPPSREEMTKNQVSLTCLVKGFYPSDIAVEWESNGQPENNYKTTPPVLDSDGSFFLYSKLTVDKSRWQQGNVFSCSVMHEALHNHYTQKSLSLSPGK
light: DIQLTQSPSFLSASVGDRVTITCKASQNVGTAVAWYQQKPGKAPKLLIYAASTLQSGVPSRFSGSGSGTEFTLTISSLQPEDFATYYCQQYSSYPLTFGGGTKVEIKRTVAAPSVFIFPPSDEQLKSGTASVVCLLNNFYPREAKVQWKVDNALQSGNSQESVTEQDSKDSTYSLSSTLTLSKADYEKHKVYACEVTHQGLSSPVTKSFNRGEC
notes: TetraFab
Turning to B3, the binding result was “no binding”.

B4: TetraFab 2057 (antibody)
heavy: QVQLVQSGAEVKKPGASVKVSCKVSGFSFPSSGVDWVRQAPGQGLEWLGVTLGHGSTHYNQKFQGRVTITKDTSKSTVYMELSSLRSEDTAVYYCASGEWDEGFVYWGQGTLVTVSSASTKGPSVFPLAPSSKSTSGGTAALGCLVKDYFPEPVTVSWNSGALTSGVHTFPAVLQSSGLYSLSSVVTVPSSSLGTQTYICNVNHKPSNTKVDKKVEPKSCGGGGSQVQLVQSGAEVKKPGASVKVSCKVSGFSFPSSGVDWVRQAPGQGLEWLGVTLGHGSTHYNQKFQGRVTITKDTSKSTVYMELSSLRSEDTAVYYCASGEWDEGFVYWGQGTLVTVSSASTKGPSVFPLAPSSKSTSGGTAALGCLVKDYFPEPVTVSWNSGALTSGVHTFPAVLQSSGLYSLSSVVTVPSSSLGTQTYICNVNHKPSNTKVDKKVEPKSCDKTHTCPPCPAPEAAGAPSVFLFPPKPKDTLMISRTPEVTCVVVDVSHEDPEVKFNWYVDGVEVHNAKTKPREEQYNSTYRVVSVLTVLHQDWLNGKEYKCKVSNKALPAPIEKTISKAKGQPREPQVYTLPPSREEMTKNQVSLTCLVKGFYPSDIAVEWESNGQPENNYKTTPPVLDSDGSFFLYSKLTVDKSRWQQGNVFSCSVMHEALHNHYTQKSLSLSPGK
light: DIQLTQSPSFLSASVGDRVTITCKASQNVGTAVAWYQQKPGKAPKLLIYAASTLQSGVPSRFSGSGSGTEFTLTISSLQPEDFATYYCQQYSSYPLTFGGGTKVEIKRTVAAPSVFIFPPSDEQLKSGTASVVCLLNNFYPREAKVQWKVDNALQSGNSQESVTEQDSKDSTYSLSSTLTLSKADYEKHKVYACEVTHQGLSSPVTKSFNRGEC
notes: TetraFab
For B4, the binding result is “no binding”.

B5: TetraFab 2058 (antibody)
heavy: QVQLVQSGAEVKKPGASVKVSCKVSGFSFPSSGVDWVRQAPGQGLEWLGVTHGSGSTHYNQKFQGRVTITKDTSKSTVYMELSSLRSEDTAVYYCASGEWDEGFVYWGQGTLVTVSSASTKGPSVFPLAPSSKSTSGGTAALGCLVKDYFPEPVTVSWNSGALTSGVHTFPAVLQSSGLYSLSSVVTVPSSSLGTQTYICNVNHKPSNTKVDKKVEPKSCGGGGSQVQLVQSGAEVKKPGASVKVSCKVSGFSFPSSGVDWVRQAPGQGLEWLGVTHGSGSTHYNQKFQGRVTITKDTSKSTVYMELSSLRSEDTAVYYCASGEWDEGFVYWGQGTLVTVSSASTKGPSVFPLAPSSKSTSGGTAALGCLVKDYFPEPVTVSWNSGALTSGVHTFPAVLQSSGLYSLSSVVTVPSSSLGTQTYICNVNHKPSNTKVDKKVEPKSCDKTHTCPPCPAPEAAGAPSVFLFPPKPKDTLMISRTPEVTCVVVDVSHEDPEVKFNWYVDGVEVHNAKTKPREEQYNSTYRVVSVLTVLHQDWLNGKEYKCKVSNKALPAPIEKTISKAKGQPREPQVYTLPPSREEMTKNQVSLTCLVKGFYPSDIAVEWESNGQPENNYKTTPPVLDSDGSFFLYSKLTVDKSRWQQGNVFSCSVMHEALHNHYTQKSLSLSPGK
light: DIQLTQSPSFLSASVGDRVTITCKASQNVGTAVAWYQQKPGKAPKLLIYAASTLQSGVPSRFSGSGSGTEFTLTISSLQPEDFATYYCQQYSSYPLTFGGGTKVEIKRTVAAPSVFIFPPSDEQLKSGTASVVCLLNNFYPREAKVQWKVDNALQSGNSQESVTEQDSKDSTYSLSSTLTLSKADYEKHKVYACEVTHQGLSSPVTKSFNRGEC
notes: TetraFab
Take B5: the binding result is “no binding”.

B6: TetraFab 2060 (antibody)
heavy: QVQLVQSGAEVKKPGASVKVSCKVSGFSFPSSGVDWVRQAPGQGLEWLGVTWGVGSTHYNQKFQGRVTITKDTSKSTVYMELSSLRSEDTAVYYCASGEHDEGFVYWGQGTLVTVSSASTKGPSVFPLAPSSKSTSGGTAALGCLVKDYFPEPVTVSWNSGALTSGVHTFPAVLQSSGLYSLSSVVTVPSSSLGTQTYICNVNHKPSNTKVDKKVEPKSCGGGGSQVQLVQSGAEVKKPGASVKVSCKVSGFSFPSSGVDWVRQAPGQGLEWLGVTWGVGSTHYNQKFQGRVTITKDTSKSTVYMELSSLRSEDTAVYYCASGEHDEGFVYWGQGTLVTVSSASTKGPSVFPLAPSSKSTSGGTAALGCLVKDYFPEPVTVSWNSGALTSGVHTFPAVLQSSGLYSLSSVVTVPSSSLGTQTYICNVNHKPSNTKVDKKVEPKSCDKTHTCPPCPAPEAAGAPSVFLFPPKPKDTLMISRTPEVTCVVVDVSHEDPEVKFNWYVDGVEVHNAKTKPREEQYNSTYRVVSVLTVLHQDWLNGKEYKCKVSNKALPAPIEKTISKAKGQPREPQVYTLPPSREEMTKNQVSLTCLVKGFYPSDIAVEWESNGQPENNYKTTPPVLDSDGSFFLYSKLTVDKSRWQQGNVFSCSVMHEALHNHYTQKSLSLSPGK
light: DIQLTQSPSFLSASVGDRVTITCKASQNVGTAVAWYQQKPGKAPKLLIYAASTLQSGVPSRFSGSGSGTEFTLTISSLQPEDFATYYCQQYSSYPLTFGGGTKVEIKRTVAAPSVFIFPPSDEQLKSGTASVVCLLNNFYPREAKVQWKVDNALQSGNSQESVTEQDSKDSTYSLSSTLTLSKADYEKHKVYACEVTHQGLSSPVTKSFNRGEC
notes: TetraFab
In the case of B6, the binding result was “no binding”.
